Reference: publication PMC10524254

Legend:
[1] = surface FACS; details: glycan lost
[2] = CD79A-BioID2 proximity labelling, SILAC MS, TMD8; details: glycan lost; control: DMSO
[3] = IgM-LAMP1 proximity ligation assay; details: glycan lost; control: DMSO
[4] = dSTORM, Hopkins index and H-function, TMD8; details: glycan lost; control: untreated / control cells
[5] = anti-IgM Fab-pHrodo internalization, flow cytometry; details: glycan lost; control: DMSO
[6] = IgM-TLR9 proximity ligation assay; details: glycan lost; control: wild type IgM
[7] = dual-color iSIM, Pearson correlation, TMD8; details: glycan lost; control: wild type IgM

B1: CD79A: N112Q (protein)
parent chain: MPGGPGVLQALPATIFLLFLLSAVYLGPGCQALWMHKVPASLMVSLGEDAHFQCPHNSSNNANVTWWRVLHGNYTWPPEFLGPGEDPNGTLIIQNVNKSHGGIYVCRVQEGNESYQQSCGTYLRVRQPPPRPFLDMGEGTKNRIITAEGIILLFCAVVPGTLLLFRKRWQNEKLGLDAGDEYEDENLYEGLNLDDCSMYEDISRGLQGTYQDVGSLNIGDVQLEKP
localisation_or_trafficking ([1]; control: wild type CD79A): no change

B2: CD79A: NGI-1 (protein)
parent chain: MPGGPGVLQALPATIFLLFLLSAVYLGPGCQALWMHKVPASLMVSLGEDAHFQCPHNSSNNANVTWWRVLHGNYTWPPEFLGPGEDPNGTLIIQNVNKSHGGIYVCRVQEGNESYQQSCGTYLRVRQPPPRPFLDMGEGTKNRIITAEGIILLFCAVVPGTLLLFRKRWQNEKLGLDAGDEYEDENLYEGLNLDDCSMYEDISRGLQGTYQDVGSLNIGDVQLEKP
other: proximity [2]: increases

B3: CD79B: N73Q (protein)
parent chain: MARLALSPVPSHWMVALLLLLSAEPVPAARSEDRYRNPKGSACSRIWQSPRFIARKRGFTVKMHCYMNSASGNVSWLWKQEMDENPQQLKLEKGRMEESQNESLATLTIQGIRFEDNGIYFCQQKCNNTSEVYQGCGTELRVMGFSTLAQLKQRNTLKDGIIMIQTLLIILFIIVPIFLLLDKDDSKAGMEEDHTYEGLDIDQTATYEDIVTLRTGEVKWSVGEHPGQE
localisation_or_trafficking ([1]; control: wild type CD79B): no change

B4: CD79B: N101Q (protein)
parent chain: MARLALSPVPSHWMVALLLLLSAEPVPAARSEDRYRNPKGSACSRIWQSPRFIARKRGFTVKMHCYMNSASGNVSWLWKQEMDENPQQLKLEKGRMEESQNESLATLTIQGIRFEDNGIYFCQQKCNNTSEVYQGCGTELRVMGFSTLAQLKQRNTLKDGIIMIQTLLIILFIIVPIFLLLDKDDSKAGMEEDHTYEGLDIDQTATYEDIVTLRTGEVKWSVGEHPGQE
localisation_or_trafficking ([1]; control: wild type CD79B): no change

B5: CD79B: triple mutant (N73Q, N101Q, N127Q) (protein)
parent chain: MARLALSPVPSHWMVALLLLLSAEPVPAARSEDRYRNPKGSACSRIWQSPRFIARKRGFTVKMHCYMNSASGNVSWLWKQEMDENPQQLKLEKGRMEESQNESLATLTIQGIRFEDNGIYFCQQKCNNTSEVYQGCGTELRVMGFSTLAQLKQRNTLKDGIIMIQTLLIILFIIVPIFLLLDKDDSKAGMEEDHTYEGLDIDQTATYEDIVTLRTGEVKWSVGEHPGQE
localisation_or_trafficking ([1]; control: wild type CD79B): no change

B6: IgM: quadruple mutant (N46Q, N209Q, N272Q, N279Q) (protein)
parent chain: GSASAPTLFPLVSCENSPSDTSSVAVGCLAQDFLPDSITFSWKYKNNSDISSTRGFPSVLRGGKYAATSQVLLPSKDVMQGTDEHVVCKVQHPNGNKEKNVPLPVIAELPPKVSVFVPPRDGFFGNPRKSKLICQATGFSPRQIQVSWLREGKQVGSGVTTDQVQAEAKESGPTTYKVTSTLTIKESDWLGQSMFTCRVDHRGLTFQQNASSMCVPDQDTAIRVFAIPPSFASIFLTKSTKLTCLVTDLTTYDSVTISWTRQNGEAVKTHTNISESHPNATFSAVGEASICEDDWNSGERFTCTVTHTDLPSPLKQTISRPKGVALHRPDVYLLPPAREQLNLRESATITCLVTGFSPADVFVQWMQRGQPLSPEKYVTSAPMPEPQAPGRYFAHSILTVSEEEWNTGETYTCVVAHEALPNRVTERTVDKSTEGEVSADEEGFENLWATASTFIVLFLLSLFYSTTVTLFKVK
localisation_or_trafficking ([1]; control: wild type IgM): no change

B7: IgM: N209Q (protein)
parent chain: GSASAPTLFPLVSCENSPSDTSSVAVGCLAQDFLPDSITFSWKYKNNSDISSTRGFPSVLRGGKYAATSQVLLPSKDVMQGTDEHVVCKVQHPNGNKEKNVPLPVIAELPPKVSVFVPPRDGFFGNPRKSKLICQATGFSPRQIQVSWLREGKQVGSGVTTDQVQAEAKESGPTTYKVTSTLTIKESDWLGQSMFTCRVDHRGLTFQQNASSMCVPDQDTAIRVFAIPPSFASIFLTKSTKLTCLVTDLTTYDSVTISWTRQNGEAVKTHTNISESHPNATFSAVGEASICEDDWNSGERFTCTVTHTDLPSPLKQTISRPKGVALHRPDVYLLPPAREQLNLRESATITCLVTGFSPADVFVQWMQRGQPLSPEKYVTSAPMPEPQAPGRYFAHSILTVSEEEWNTGETYTCVVAHEALPNRVTERTVDKSTEGEVSADEEGFENLWATASTFIVLFLLSLFYSTTVTLFKVK
localisation_or_trafficking ([1]; control: wild type IgM): no change

B8: IgM: NGI-1 (protein)
parent chain: GSASAPTLFPLVSCENSPSDTSSVAVGCLAQDFLPDSITFSWKYKNNSDISSTRGFPSVLRGGKYAATSQVLLPSKDVMQGTDEHVVCKVQHPNGNKEKNVPLPVIAELPPKVSVFVPPRDGFFGNPRKSKLICQATGFSPRQIQVSWLREGKQVGSGVTTDQVQAEAKESGPTTYKVTSTLTIKESDWLGQSMFTCRVDHRGLTFQQNASSMCVPDQDTAIRVFAIPPSFASIFLTKSTKLTCLVTDLTTYDSVTISWTRQNGEAVKTHTNISESHPNATFSAVGEASICEDDWNSGERFTCTVTHTDLPSPLKQTISRPKGVALHRPDVYLLPPAREQLNLRESATITCLVTGFSPADVFVQWMQRGQPLSPEKYVTSAPMPEPQAPGRYFAHSILTVSEEEWNTGETYTCVVAHEALPNRVTERTVDKSTEGEVSADEEGFENLWATASTFIVLFLLSLFYSTTVTLFKVK
localisation_or_trafficking [3]: decreases | other: surface clustering [4]: decreases | localisation_or_trafficking [5]: decreases

B9: IgM: N46 mutant (protein)
parent chain: GSASAPTLFPLVSCENSPSDTSSVAVGCLAQDFLPDSITFSWKYKNNSDISSTRGFPSVLRGGKYAATSQVLLPSKDVMQGTDEHVVCKVQHPNGNKEKNVPLPVIAELPPKVSVFVPPRDGFFGNPRKSKLICQATGFSPRQIQVSWLREGKQVGSGVTTDQVQAEAKESGPTTYKVTSTLTIKESDWLGQSMFTCRVDHRGLTFQQNASSMCVPDQDTAIRVFAIPPSFASIFLTKSTKLTCLVTDLTTYDSVTISWTRQNGEAVKTHTNISESHPNATFSAVGEASICEDDWNSGERFTCTVTHTDLPSPLKQTISRPKGVALHRPDVYLLPPAREQLNLRESATITCLVTGFSPADVFVQWMQRGQPLSPEKYVTSAPMPEPQAPGRYFAHSILTVSEEEWNTGETYTCVVAHEALPNRVTERTVDKSTEGEVSADEEGFENLWATASTFIVLFLLSLFYSTTVTLFKVK
other: proximity (My-T-BCR formation) [6]: decreases | other: plasma-membrane colocalisation [7]: increases

B10: IgM: STT3B knockout (protein)
parent chain: GSASAPTLFPLVSCENSPSDTSSVAVGCLAQDFLPDSITFSWKYKNNSDISSTRGFPSVLRGGKYAATSQVLLPSKDVMQGTDEHVVCKVQHPNGNKEKNVPLPVIAELPPKVSVFVPPRDGFFGNPRKSKLICQATGFSPRQIQVSWLREGKQVGSGVTTDQVQAEAKESGPTTYKVTSTLTIKESDWLGQSMFTCRVDHRGLTFQQNASSMCVPDQDTAIRVFAIPPSFASIFLTKSTKLTCLVTDLTTYDSVTISWTRQNGEAVKTHTNISESHPNATFSAVGEASICEDDWNSGERFTCTVTHTDLPSPLKQTISRPKGVALHRPDVYLLPPAREQLNLRESATITCLVTGFSPADVFVQWMQRGQPLSPEKYVTSAPMPEPQAPGRYFAHSILTVSEEEWNTGETYTCVVAHEALPNRVTERTVDKSTEGEVSADEEGFENLWATASTFIVLFLLSLFYSTTVTLFKVK
other: surface clustering [4]: decreases

B11: IgM: N209 mutant (protein)
parent chain: GSASAPTLFPLVSCENSPSDTSSVAVGCLAQDFLPDSITFSWKYKNNSDISSTRGFPSVLRGGKYAATSQVLLPSKDVMQGTDEHVVCKVQHPNGNKEKNVPLPVIAELPPKVSVFVPPRDGFFGNPRKSKLICQATGFSPRQIQVSWLREGKQVGSGVTTDQVQAEAKESGPTTYKVTSTLTIKESDWLGQSMFTCRVDHRGLTFQQNASSMCVPDQDTAIRVFAIPPSFASIFLTKSTKLTCLVTDLTTYDSVTISWTRQNGEAVKTHTNISESHPNATFSAVGEASICEDDWNSGERFTCTVTHTDLPSPLKQTISRPKGVALHRPDVYLLPPAREQLNLRESATITCLVTGFSPADVFVQWMQRGQPLSPEKYVTSAPMPEPQAPGRYFAHSILTVSEEEWNTGETYTCVVAHEALPNRVTERTVDKSTEGEVSADEEGFENLWATASTFIVLFLLSLFYSTTVTLFKVK
other: proximity (My-T-BCR formation) [6]: decreases | other: plasma-membrane colocalisation [7]: increases
